Measurements as given in a protein production outcome set (Wang et al. 2014).

Experiment: label from the status in PepcDB records

Sequence | protein production
MFKPQGLYDYICQQWQEEILPSLCDYIKIPNKSPHFDAKWEEHGYMEQAVNHIANWCKSHAPKGMTLEIVRLKNRTPLLFMEIPGQIDDTVLLYGHLDKQPEMSGWSDDLHPWKPVLKNGLLYGRGGADDGYSAYASLTAIRALEQQGLPYPRCILIIEACEESGSYDLPFYIELLKERIGKPSLVICLDSGAGNYEQLWMTTSLRGNLVGKLTVELINEGVHSGSASGIVADSFRVARQLISRIEDENTGEIKLPQLYCDIPDERIKQAKQCAEILGEQVYSEFPWIDSAKPVIQDKQQLILNRTWRPALTVTGADGFPAIADAGNVMRPVTSLKLSMRLPPLVDPEAASVAMEKALTQNPPYNAKVDFKIQNGGSKGWNAPLLSDWLAKAASEASMTYYDKPAAYMGEGGTIPFMSMLGEQFPKAQFMITGVLGPHSNAHGPNEFLHLDMVKKLTSCVSYVLYSFSQKK | not failed
MFKRCFSPLTLVNQLALIVMLSTAIGVAGMAVSGWLVQGVQGSAHAINKAGSLRMQSYRLLAAVPLDAKDQKLLDEMEQTAFSPELTRAAERDGQQKQLKALQDYWHNELSPRLQHAQNAHAVAEDITRFVAGLDRLVTSFDHTTELRIERVVLVHRVMAIFMALLLVFTIIWLRVRLLQPWKQLLSMARAVSQRDFTQRANISGRNEMAALGSALNNMSEELAESYAVLEQRVQEKTAGLEHKNQILSFLWQANRRLHSQAPLCERLSPVLNGLQNLTQLHDIELRVYDLEDEDNHQEFTCQSDISCDDKGCHLCPRSALPMINGGTTLKWRLTDSHTQYGILLATLPYGRHLSHDQQQLVDTLVEQLTATLALDRHQERQQRLIVMEERATIARELHDSIAQSLSCMKMQVSCLQMQGDALPESSRELLSQIRNELNCSWAQLRELLTTFRLQLTEPGLRPALEASCQEFSARFGFTVKLDYQLPPRLVPSHQAIHLLQIAREAPSNALKHSHADDVVVTVTQCGKQVKLKVQDNGCGVPENAERSNHYGMIIMRDRAQSLRGDCQVRRRETGGTEVTVTFIPETNFTETQGDTHE | failed
MFKSVQQRTIQNGQVIPFYHSTNELAHIQNILQSQTPLVSLKEINKFRQLIARASVGEYFLIQSGDCAENFYECDKDTTHAKLDFIRHLATFFHQKTGCSVIQVGRIARQYAKPRSNQYEICQNKRIYSYFGGMINQSQETQRRPNPWRILLSYNCSASIYRKINQWNRGINPEQKIYTSQEAFLFNYEQSLTRWDERTGLYYNLSTHFPWLGKRTVSSLQHINHLKKIANPIAVKIGPDTPIKNLVKVINELDPSYIPGRITLIPELGAQNVYHILPQLIDAVKRTDRTVLWSCDPMHGNTETLSSGIKIRKLSNIVEEIKNSFFIHRKMGSQLNAIHLEATHQNVTECMDYKSSHCESISDLKKNYKNLLDPRLNYAQTLHVIQCVAKYYANS | failed
MFLAGAFIAVGSLYAQSSDAEWQAGVAKLKETIQTNPAQANEEAEQLIKGKNKKNVELLVAIGEVYLKAGKLPEAQEYAALAKKVNGKSALASVLEGDIAFEQKNAGLASQKYEEAIYFDPSCTEAYLRYADIYKSANAALAIEKLEQLKAQEPSNTAVDKKLAEIYYLKNDFSKAAEAYSRFAMGPTATEEDLVKYAFALFLNHDFEKSLEVANMGLKKNARHAAFNRLAMYNYTDLKRFDEAIKAADAFFTESDKADYSYLDYMYYGHLLEALKKYDEAVGQYEKAIQLDPTKTDLYKNISSAYEQKNDYKKAISAYQKYYTSLDKEHQTPDLQFQFGRLYYGAGTQTDSLTINAEERKQALMAADSVFHSIAEAAPDSYLGNFWRARANSALDPETTLGLAKPFYEEVATLLESKNDPHYNSALIECYSYLGYYYLLAIENPALKAEAMANKEKSKEYWSKILAIDSTNATAKRALDGIK | failed
MFLFLTCKIGNRMVKLRTFINISEDLFVIRNLIGAILQGIGLAYLVPVLLAWFYPEEIPLVIYFAIPGFSCIILGWVLSKHMEKIEDVNLRQAMMASAFIWLFASLVSVIPFMGIAKMRFVDSYFETMSAWTGTGLTMMSNLESYPKILLFWRAWMQWLGGIGIVLVALTVLIRPGVAAARLYKAEARSERILPNFVNTAKIIVQIYAVLTLLGIYLYYSNGMSLFDATIHSMTGLGTGGMSSHDLSIGYFNSLAIETVTVFLMIMGATNFTVHYRMFKNRSLKEFFRDIQVRYMLYFITLIVALMTYSLVFFGHLTPIRALRESIFHAVSAITCTGFGISNLAEYPEIDKILLAILMVIGGSAGSTSGGIKLIRIVLMYQSLKWTIEQAILPKGAVIRKRVNGYEFTEEEIQEVLGFTMTYIAFLLLGTLYIMLRLGVRFADALFEVASAIGNVGLSVGITSPLLPLDIKILLTILMWVGRLEIFSTIVFIVGLAMIFSRRSKE | failed
MFLFSLTLGVYCSSWTFYGATGAAVREGVIFLPIYLGPLLFVWFGYDIWRRLGRVRQHHAISSIADFVAARYGKSGVLASLVTILAVIAIIPYLALQLRAIALSTSVIMEQSSHIHTTTNSVLLLTSVLAILAMIFGTRQIANTEQHGGLMLAVAFESFVKLFALLCVALFFIFESPANLSQMTSDVNQTFQEVQLFGVPETFWIQTLLAGLAIICLPRQFHVAVVELRDEKHIRGARKWFAVYLILTILAIIPIASWALHAAPKFLTVPDVAVLSLPLSYNQEWLALLAFLGGFSASTGMLLVSSVALSIMLSNDLIMPALWRFKLLSRHDKHLPKVLKFSRRISIVAVMLLGFLFFHFFNDINQLSVFGLLAFSAVAQFAPALIGGLYWRGGSRQGVYAGLIIGFLMWSYTLLFPTILRSLPEAYQETAQSILLFGPFGINALRPESLFGFESFAPLTHGVIWSLGLNIVLYIWISKIYRPSVAEQIQAESFFYYETKPLPSPHTSTDLTYLPHDAARLKVGDLFALAKRITGEQPTTQAFENFCEQNHLTLNPNSIANGMWWRFTEQYLAGIIGAASARTLLTTAMINNGLALGQVANILDQASQWQRFNQNLLMTMIDHMTQGVSVVDKNMCLVAWNNQYLKLFGYPKDLVYVGCPIADLIRYNAERGECGPGSVEEHVRKRLHWMKVGSAHEFERIRKDGRVIQMRGNPIAGGGFVTTFADITAFRANEAVLEARVKDRTQQLADALTEQQLAREQADMANMSKSRFIAAASHDLLQPMHAARLFSTVLEQSISTEEDRQTLQQLDRALYGAESMLSALLDIARLEGGTIQPKRQPYPLHDLLSDLELQFKSIAAQRNISLKVHDVSFWIDTDPQWIRRIIQNFVSNALRYTAKGRVVVGVLRSAQQSGHIRIGVWDTGPGIAEEQRIKLFQEFERCGHLSPWGEQGLGLGLAIVQRMTGLLNYPVHVYSELGKGSCFMIEVPIVEPPKVATPAVQAVPLKTKAYRILCLDNDETILEGMSSLLGRWGYQVFKATEPEQALEIIQKENIQVWLIDQHLNHNQLGVDFITQNRQEDVPVALITADSHPELPQQLKELNIVLLKKPLKPASLRAWLSGLKIASTTD | failed
MFLLEPKQSSNPMQPQETAARYDTIAQWWQTQHQDSQYGLRQLERAIQFVDPTHQPKLALEVGCGSSGRFIECLSNRGFQVEGLDISTAMIDLAQQLHPEVTFYRADICEWIPSKSYSLIVAWDSTFHLPLDQQAPVHRKLCAALEDQGILMFTCGGGDQAGEIAGVFQGQDFEYSTLGIDAFLKLLSDCHCTCLHLEYDQYPERHVYVIAKKVGAAIH | failed
MFMAKRYENMDNVSTKKSIRSFLRWRKERKQNKKDFSFLVEQSPVKQSAFLQSNVEKTTITWIGHSTFLIQTNGLNILTDPVWANKLKLVPRLTEPGLSIEALPKIDIVLISHGHYDHLDFSTLRQLNDDVLYLVPIGLKKLFTRKKFKHVEEYKWWESTIINEVSFHFVPSQHWTRRFLFDMNTSHWGGWIIDNETTMETIYFCGDSGYFQGFKEIGERFLIDIALMPIGAYEPEWFMKVSHVSPEEAVQAYLDLNATHFIPMHYGAFALADETPREAITRLRNNWNLRMLPWEQLHVLFLGQTFIYSNATNNKQIKEKIETLHV | failed
MFMEVSLTSLPAHVMNALDAIWEGSIADSLESETLEFKEDPSCAGRGKQHGNPQAALIEKLIDEAVCLANGDAGTGHIVVGIKDKIGGPEAFTGTTFDTEKIAKKIFDGTRPNLRPEVHEVRYQNNRLIVIYIPEALSLYSRSKGQTSKRVGSHCEPLSEEQRRAIAATRAHADYSNGISEFNVDDIAADTIQEVRRLLKTKRAQSGIDTSLPTTTNGLLRELGLIDNYGALKRAGAILLLPAPEGQLSIRHFWRSFPGIDPEVTDYNQPLLIALSSLKRRITENANKEIKRIQFSDGQEIAVSAFPQTAVDEVVTNAIIHRDWRLSRPVVIDQSPQTLKVWSPGSLPVGVTPNRLLTTQSIPRNSRLMSAMRMLGLAEESSRGFDRIWAALLGSGRDIPDVHTEDTFVEVILHSGNPDESFIKALHELSLSFNPDMLHSVNTLIVLWHLWTSPVISLKQARVKTQTSSKEATELMFALESNGLLTQIHNTDEWFLSEKARKTTNYYQSETIPQSSVQTWVEEKLSSGSPISAAEIAESIGMPRPEITEILRNLRRAGKAHIDPSGPQRGSGTRWIKGT | failed
MFNAGNRIINTWLYPIQDGFVLIDTGYENGFKHFKKRISKFNIKIKDIRYIFLTHAHDDHVGFLNQILDESPNTKIVMHDKALEILYKGQNSFIGGCTSRTAFLFCQIMKLFGKGEHSFSPLKQEFEKRCILVSDKNRKEIEKELNGKIIDTPGHTDDSISLLIDDGVLFCGDSAMNGFPSTHKITIFAESKLEFIQSWKTIINTKPKMIYPGHGKPFEYSKLEQNLIYVNKINLYPLHNSKDIHRFL | failed
MFNESDAPQPPKVLSTPLEIAANLRQLQESHDPLIITFHDRSHRFQSYVVHVDRESNTLALDEMIPRDGEKFIENGEHFRVEGFHDGVRIAWECDHALKISEVDGHRCYSGPLPQEVTYHQRRNAFRAALKLSQLVDIILDGAHLKGNGAMRGKLLDISATGCKLRFEGNVEDRLQLGQVYERFKAGNPLGLVDTMVELRHLHYEERINTTFAGVRFHNLSGQAQRKIESFVYQLQREARRFDKDDY | not failed
MFNFFKNKQTEPAAPPPPKDPTPRIEFFNGISEELSNVSLQRNPKTGVKSVSMTFAQLNALDRFQSFTAGSNGIVRLIDEEGDIAVTPSSCRIVFGGEEGDELRGVICRFEIENDDHWERFMRFMHRYADEHGFAYGESAETSNEPSSLASETDSEA | failed
MFNIKENQTTVKKEILAGITTFFTMVYIVVVNPSILSGTGVPFDQVFTATIIAAVVGTLWMALAANFPIAIAPGMGLNVYFAVSVVGSSNGEISYQTAFSTVFAAGILFIILSLTPLRKQLIEAIPANLKYGITAGIGLFIAFVGLRGAGIITANEANLVGLGNLHSPGVILALIGLAFSVVLMVMNVSGALFFGMILTGLIAFFTGQLEFTKGIMSMPHLPEKLIVTNPFAAFGDVIHYGLYSVVFSFLLVTIFDTTGTMIGVAEQAGLMKNNKLPNARKALLADSTATTVGAMFGTSPTTAYIESSAGVAAGGRTGLTSLTVAVLFGAALFFSPLVSAVSGIAAITSPALIIVGSMMIGAVTNIRWKELDEAFPAFLVILTMPLTSSIATGISLGFIAYPIVKAAKGKWREIHPLVFVFAVLFFIHLFFLEGH | failed
MFPGVFEHLLYQYTSAILSVGFLIFNGLFAVIYNPKKVVGIKGDPDYTFTDITVLIPVYNEVEDIFRKVIKSVSSMGLKFVVVGDGVDQPYRAITEQNGGIFIRLEERRGKRFALSEGMRYIDTRLVLLLDSDTFIDKRSLERMLSYMAEDVGGVSPSIRVWNNGKISYYYANFYEIMSEIVNRATSYFGRTIILSGQCVLYKTSAIRNYVMSNDFTSSKIFNISLKISDDRDLTEYIIERGYKAIKAIDAIAYTKPPENLSQFVKQVVRWTRANYLFFLRSLRDGSLSLRGNLYVFDIIYMNFLPILVIFSLIPLQYPRFDIFNTLSASITSLERLDIFQLILGIPIRAHLPPFDFVLVFILPRVLSIIGGVTFLLVMIKIMEKERGKTLMYGVIALIVQSLASFYSIASMWKQSWSSREKNRKSKK | failed
MFPRALAIGTPAQHKATEAPVTSTSASGLARFNTLEETAALAELHEACAATAWARHLLAARPFATAEDLYAASDAAMAELSAEDLAEAMAGHPPIGRPKPGDATSSREQAGMAGAAEELKAEMLELNLAYQDKFGHVFLICATGRTGEQMRDAALERIGNSPEQEREIVRTELGKINRIRLTRLVEQDARPLEHHHHHH | not failed
